Test results reported in paper PMC3517901, “The TSC1-TSC2 complex consists of multiple TSC1 and TSC2 subunits” (BMC Biochemistry, 2012).

B1: TSC2, untagged, full-length (transfected) (natural protein)
chain: not shown
notes: TSC2; also called untagged TSC2; source: HEK 293T, transfected, in lysate; also co-purified with TSC1-TEV-myc on anti-myc beads and released by AcTEV

Assays:
[1] = target: the molecule itself; assay: SEC; TSC1-TSC2 complex from cotransfected HEK 293T cells, purified on anti-myc affinity beads, released by AcTEV overnight at 4°C, Coomassie gel and Superose 6 gel filtration, fractions immunoblotted
[2] = target: B1; assay: as above; conditions: both partners purified

B1: binds [1].

B2: TSC1-TEV-myc, released from anti-myc beads by AcTEV (natural protein, UniProt Q92574 1-1164, looked up)
chain: MAQQANVGELLAMLDSPMLGVRDDVTAVFKENLNSDRGPMLVNTLVDYYLETSSQPALHILTTLQEPHDKHLLDRINEYVGKAATRLSILSLLGHVIRLQPSWKHKLSQAPLLPSLLKCLKMDTDVVVLTTGVLVLITMLPMIPQSGKQHLLDFFDIFGRLSSWCLKKPGHVAEVYLVHLHASVYALFHRLYGMYPCNFVSFLRSHYSMKENLETFEEVVKPMMEHVRIHPELVTGSKDHELDPRRWKRLETHDVVIECAKISLDPTEASYEDGYSVSHQISARFPHRSADVTTSPYADTQNSYGCATSTPYSTSRLMLLNMPGQLPQTLSSPSTRLITEPPQATLWSPSMVCGMTTPPTSPGNVPPDLSHPYSKVFGTTAGGKGTPLGTPATSPPPAPLCHSDDYVHISLPQATVTPPRKEERMDSARPCLHRQHHLLNDRGSEEPPGSKGSVTLSDLPGFLGDLASEEDSIEKDKEEAAISRELSEITTAEAEPVVPRGGFDSPFYRDSLPGSQRKTHSAASSSQGASVNPEPLHSSLDKLGPDTPKQAFTPIDLPCGSADESPAGDRECQTSLETSIFTPSPCKIPPPTRVGFGSGQPPPYDHLFEVALPKTAHHFVIRKTEELLKKAKGNTEEDGVPSTSPMEVLDRLIQQGADAHSKELNKLPLPSKSVDWTHFGGSPPSDEIRTLRDQLLLLHNQLLYERFKRQQHALRNRRLLRKVIKAAALEEHNAAMKDQLKLQEKDIQMWKVSLQKEQARYNQLQEQRDTMVTKLHSQIRQLQHDREEFYNQSQELQTKLEDCRNMIAELRIELKKANNKVCHTELLLSQVSQKLSNSESVQQQMEFLNRQLLVLGEVNELYLEQLQNKHSDTTKEVEMMKAAYRKELEKNRSHVLQQTQRLDTSQKRILELESHLAKKDHLLLEQKKYLEDVKLQARGQLQAAESRYEAQKRITQVFELEILDLYGRLEKDGLLKKLEEEKAEAAEAAEERLDCCNDGCSDSMVGHNEEASGHNGETKTPRPSSARGSSGSRGGGGSSSSSSELSTPEKPPHQRAGPFSSRWETTMGEASASIPTTVGSLPSSKSFLGMKARELFRNKSESQCDEDGMTSSLSESLKTELGKDLGVEAKIPLNLDGPHPSPPTPDSVGQLHIMDYNETHHEHS
notes: TSC1 with an AcTEV recognition site (ENLYFQG) introduced by site directed mutagenesis before the myc tag; after cleavage part of the site (ENLYFQ) would remain on TSC1; The position of the site is in Additional file 1
B2: binds [2].
